Experiments:
[1] = target: T1, α1B-1α2b human neuronal calcium channel subunit combination (human); assay: saturation binding of 125I-ω-CgTx GVIA to transfected HEK293 cells
[2] = target: human neuronal calcium channel α1B-1 subunit alone (human); assay: as above
[3] = target: T1, α1B-1α2b human neuronal calcium channel …; assay: Bmax of 125I-ω-CgTx GVIA binding, against α1B-1 alone

B1: 125I-ω-CgTx GVIA, P01522 46-72 (peptide)
peptide: CKSPGSSCSPTSYNCCRSCNPYTKRCY
modifications: not checked
Bmax [1]: 2260 sites/cell
Kd [1]: 0.0846 nM
Bmax [2]: 757 sites/cell
Kd [2]: 0.0317 nM
fold change of binding capacity [3]: 3 fold

From patent publication US6528630
